Assay results from patent publication US20160311887A1 (CAMBRIDGE ENTERPRISE, published 2016).

What was measured:
[1] = molecular target: T1, activated Protein C (APC) (human, UniProt P04070 43-197; P04070 212-461); test: ratio of rate constants, APC over fXa
T1 construct: also called human plasma APC
Procedure: (§1) The inhibition of APC was reduced but still considerable, especially for the variants of α₁AT and the PCI variants in the presence of heparin. However, the specificity of PCI and α₁AT Pitts is not limited to thrombin and APC. […] In order not to inhibit coagulation, our variants also need to be specific for APC over fXa. We therefore also determined the rate constants of inhibition of PCI and α₁AT and their variants for fXa (Table 3). Rate constants were measured under pseudo-first-order conditions using an excess of serpin over protease. Serpin and protease were incubated together for varying lengths of time and the residual activity determined by adding an excess of chromogenic substrate (S2222) for the protease. Plots of residual protease activity over time gave the observed rate constant kobs. The second-order rate constant, k₂, is the slope of the plot of kobs versus serpin concentration (fitted using a linear regression model). Standard errors of the slope are shown (Table 3).

[2] = molecular target: T1, activated Protein C (APC); test: ratio of rate constants, APC over thrombin
Procedure: (§2) Rate constants of thrombin and APC inhibition were measured under pseudo-first-order conditions using an excess of serpin over protease (Table 1). Serpin and protease were incubated together for varying lengths of time and the residual activity was determined by adding an excess of chromogenic substrate for the protease (S2238 for thrombin and […] for APC). Residual protease activity was then measured by following the absorbance at 405 nm. Plots of residual protease activity over time gave the observed rate constant kobs. The second-order rate constant, ₖ₂, is the slope of the plot of kobs versus serpin concentration (fitted using a linear regression model). Standard errors of the slope are shown.

thrombin [3] = molecular target: T2, thrombin (UniProt P00734 328-622); test: pseudo-first-order inhibition kinetics, residual chromogenic activity
Procedure: as §2

[4] = molecular target: T1, activated Protein C (APC); test: as above
Procedure: as §2

fXa [5] = molecular target: T3, fXa (UniProt P00742 41-179; P00742 235-488); test: pseudo-first-order inhibition kinetics, residual chromogenic activity (S2222)
T3 construct: also called factor Xa
Procedure: as §1

fXa [6] = molecular target: T3, fXa; test: single-concentration estimate (FIG. 15)
Procedure: 1 μM serpin was incubated with 12.5 nM protease for different amounts of time. At the indicated timepoints, the reaction was stopped by addition of an excess of chromogenic substrate (S2238 for thrombin, S2222 for fXa). The residual enzyme activity was divided by the initial enzyme activity and the natural log of this value plotted against time. The slope of these plots is the observed rate constant, kobs. To obtain an estimate of the second-order rate constant k₂, kobs was divided by the serpin concentration. […] The mutants shown all have the Pitts (M358R, P1R) mutation.
Four additional mutants were identified from this additional screen. These all had the P1R mutation and in addition had either P2RP1′A, P2RP1′Q, P2WP1′I or P2WP1′H. To verify the specificity of these mutants, an initial experiment was performed, using only one concentration of serpin and testing its inhibition of thrombin and fXa. APC inhibition was not considered at this stage, because mutants were selected based on their low inhibition of thrombin and fXa. Serpin and protease were incubated for different times and at the indicated timepoints, the reaction was stopped by addition of an excess of chromogenic substrate. Residual protease activity was divided by the initial protease activity and the natural log of this value plotted against time (FIG. 15). The slope of this line divided by the serpin concentration gives an estimate of the second-order rate constant of inhibition.

thrombin [7] = molecular target: T2, thrombin; test: preliminary pseudo-first-order inhibition kinetics, residual chromogenic activity
Procedure: (§3) Preliminary second-order rate constants for the inhibition of thrombin and APC by random mutagenesis PCI variants were measured under pseudo first-order conditions using an excess of serpin over protease. Serpin and protease were incubated together for varying lengths of time and the residual activity determined by adding an excess of chromogenic substrate for the protease. Plots of residual protease activity over time gave the observed rate constant kobs. The second-order rate constant, k₂, is the slope of the plot of kobs versus serpin concentration (fitted using a linear regression model). WT and P2KP1′K are shown for comparison. The error shown is the standard error of the slope.

[8] = molecular target: T1, activated Protein C (APC); test: as above
Procedure: as §3

[9] = molecular target: T1, activated Protein C (APC); test: ratio of rate constants, APC over thrombin; remark: listed apart in the source
Procedure: Standard errors are shown.
as §3

T3 sequence (P00742 41-179 limits assumed, form in doubt, chain 1 of 2): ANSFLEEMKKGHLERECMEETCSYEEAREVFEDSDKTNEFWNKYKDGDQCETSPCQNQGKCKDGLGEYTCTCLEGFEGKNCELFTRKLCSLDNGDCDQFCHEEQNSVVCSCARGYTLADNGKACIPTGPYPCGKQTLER
T3 sequence (P00742 235-488 limits assumed, form in doubt, chain 2 of 2): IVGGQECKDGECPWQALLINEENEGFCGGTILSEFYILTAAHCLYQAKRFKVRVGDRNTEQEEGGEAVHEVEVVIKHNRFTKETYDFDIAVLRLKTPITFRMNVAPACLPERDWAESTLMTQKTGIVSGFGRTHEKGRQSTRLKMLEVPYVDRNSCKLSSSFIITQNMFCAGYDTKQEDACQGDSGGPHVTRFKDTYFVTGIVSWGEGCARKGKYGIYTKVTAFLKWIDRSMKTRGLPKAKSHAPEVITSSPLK
T1 sequence (P04070 43-197, chain 1 of 2): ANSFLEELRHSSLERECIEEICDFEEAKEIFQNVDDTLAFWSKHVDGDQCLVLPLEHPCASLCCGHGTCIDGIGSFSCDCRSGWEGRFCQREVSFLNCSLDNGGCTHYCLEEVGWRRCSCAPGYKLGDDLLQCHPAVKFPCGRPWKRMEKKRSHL
T1 sequence (P04070 212-461, chain 2 of 2): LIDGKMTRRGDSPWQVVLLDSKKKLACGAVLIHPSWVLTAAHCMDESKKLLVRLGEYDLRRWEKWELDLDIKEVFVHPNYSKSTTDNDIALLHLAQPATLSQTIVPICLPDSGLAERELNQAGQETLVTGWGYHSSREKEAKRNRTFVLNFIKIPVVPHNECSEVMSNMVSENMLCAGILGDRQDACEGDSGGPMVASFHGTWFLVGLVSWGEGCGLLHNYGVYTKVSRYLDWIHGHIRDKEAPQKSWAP

Row | Binder | fold reduction of the second-order rate constant compared to FL α1AT Pitts C232S (fXa [6]) [fold] | second-order rate constant of inhibition (thrombin [7]) [M⁻¹ s⁻¹] | second-order rate constant of inhibition [8] [M⁻¹ s⁻¹] | inhibition of APC/thrombin [9] [fold] | other results
1 | FL α1AT Pitts C232S P2K (other, E. coli, SUMO tag removed; also called P2K α1AT Pitts; P2.G11) SDPQGDAAQKTDTSHHDQDHPTFNKITPNLAEFAFSLYRQLAHQSNSTNIFFSPVSIATAFAMLSLGTKADTHDEILEGLNFNLTEIPEAQIHEGFQELLRTLNQPDSQLQLTTGNGLFLSEGLKLVDKFLEDVKKLYHSEAFTVNFGDTEEAKKQINDYVEKGTQGKIVDLVKELDRDTVFALVNYIFFKGKWERPFEVKDTEEEDFHVDQVTTVKVPMMKRLGMFNIQHSKKLSSWVLLMKYLGNATAIFFLPDEGKLQHLENELTHDIITKFLENEDRRSASLHLPKLSITGTYDLKSVLGQLGITKVFSNGADLSGVTEEAPLKLSKAVHKAVLTIDEKGTEAAGAMFLEAIKRSIPPEVKFNKPFVFLMIEQNTKSPLFMGKVVNPTQK | – | – | – | – | fold inhibition APC/fXa [1]: 16.5 fold; fold inhibition APC/thrombin [2]: 1270 fold; second-order rate constant of inhibition (thrombin [3]): 51 M⁻¹ s⁻¹; second-order rate constant of inhibition [4]: 64800 M⁻¹ s⁻¹; second-order rate constant of inhibition (fXa [5]): 3930 M⁻¹ s⁻¹
2 | FL α1AT Pitts C232S P1′K (other, E. coli, SUMO tag removed; also called P1′K α1AT Pitts; P1′.F9) SDPQGDAAQKTDTSHHDQDHPTFNKITPNLAEFAFSLYRQLAHQSNSTNIFFSPVSIATAFAMLSLGTKADTHDEILEGLNFNLTEIPEAQIHEGFQELLRTLNQPDSQLQLTTGNGLFLSEGLKLVDKFLEDVKKLYHSEAFTVNFGDTEEAKKQINDYVEKGTQGKIVDLVKELDRDTVFALVNYIFFKGKWERPFEVKDTEEEDFHVDQVTTVKVPMMKRLGMFNIQHSKKLSSWVLLMKYLGNATAIFFLPDEGKLQHLENELTHDIITKFLENEDRRSASLHLPKLSITGTYDLKSVLGQLGITKVFSNGADLSGVTEEAPLKLSKAVHKAVLTIDEKGTEAAGAMFLEAIPRKIPPEVKFNKPFVFLMIEQNTKSPLFMGKVVNPTQK | – | – | – | – | fold inhibition APC/fXa [1]: 19.6 fold; fold inhibition APC/thrombin [2]: 563 fold; second-order rate constant of inhibition (thrombin [3]): 170 M⁻¹ s⁻¹; second-order rate constant of inhibition [4]: 95700 M⁻¹ s⁻¹; second-order rate constant of inhibition (fXa [5]): 4890 M⁻¹ s⁻¹
3 | A22 4.H11 PCI (P4KP2RP1′H) (other, As A22 WT PCI) APSSRRDFTFDLYRALASAAPSQNIFFSPVSISMSLAMLSLGAGSSTKMQILEGLGLNLQKSSEKELHRGFQQLLQELNQPRDGFQLSLGNALFTDLVVDLQDTFVSAMKTLYLADTFPTNFRDSAGAMKQINDYVAKQTKGKIVDLLKNLDSNAVVIMVNYIFFKAKWETSFNHKGTQEQDFYVTSETVVRVPMMSREDQYHYLLDRNLSCRVVGVPYQGNATALFILPSEGKMQQVENGLSEKTLRKWLKMFKKRQLELYLPKFSIEGSYQLEKVLPSLGISNVFTSHADLSGISNHSNIQVSEMVHKAVVEVDESGTRAAAATGTIKTRRHARLNSQRLVFNRPFLMFIVDNNILFLGKVNRP | – | 21 | 450 | 21.4 | –
4 | A22 D8 PCI (P4QP2RP1′N) (other, As A22 WT PCI) APSSRRDFTFDLYRALASAAPSQNIFFSPVSISMSLAMLSLGAGSSTKMQILEGLGLNLQKSSEKELHRGFQQLLQELNQPRDGFQLSLGNALFTDLVVDLQDTFVSAMKTLYLADTFPTNFRDSAGAMKQINDYVAKQTKGKIVDLLKNLDSNAVVIMVNYIFFKAKWETSFNHKGTQEQDFYVTSETVVRVPMMSREDQYHYLLDRNLSCRVVGVPYQGNATALFILPSEGKMQQVENGLSEKTLRKWLKMFKKRQLELYLPKFSIEGSYQLEKVLPSLGISNVFTSHADLSGISNHSNIQVSEMVHKAVVEVDESGTRAAAATGTIQTRRNARLNSQRLVFNRPFLMFIVDNNILFLGKVNRP | – | 84 | 1000 | 11.9 | –
5 | A22 5.E12 PCI (P4HP2RP1′V) (other, As A22 WT PCI) APSSRRDFTFDLYRALASAAPSQNIFFSPVSISMSLAMLSLGAGSSTKMQILEGLGLNLQKSSEKELHRGFQQLLQELNQPRDGFQLSLGNALFTDLVVDLQDTFVSAMKTLYLADTFPTNFRDSAGAMKQINDYVAKQTKGKIVDLLKNLDSNAVVIMVNYIFFKAKWETSFNHKGTQEQDFYVTSETVVRVPMMSREDQYHYLLDRNLSCRVVGVPYQGNATALFILPSEGKMQQVENGLSEKTLRKWLKMFKKRQLELYLPKFSIEGSYQLEKVLPSLGISNVFTSHADLSGISNHSNIQVSEMVHKAVVEVDESGTRAAAATGTIHTRRVARLNSQRLVFNRPFLMFIVDNNILFLGKVNRP | – | 23 | 260 | 11.3 | –

Second part, led by results:

Row | fold reduction of the second-order rate constant compared to FL α1AT Pitts C232S (fXa [6]) [fold] | second-order rate constant of inhibition (thrombin [7]) [M⁻¹ s⁻¹] | second-order rate constant of inhibition [8] [M⁻¹ s⁻¹] | inhibition of APC/thrombin [9] [fold] | Binder | other results
6 | ~10 | – | – | – | α1AT Pitts (P1R) mutant P2WP1′I (other) SDPQGDAAQKTDTSHHDQDHPTFNKITPNLAEFAFSLYRQLAHQSNSTNIFFSPVSIATAFAMLSLGTKADTHDEILEGLNFNLTEIPEAQIHEGFQELLRTLNQPDSQLQLTTGNGLFLSEGLKLVDKFLEDVKKLYHSEAFTVNFGDTEEAKKQINDYVEKGTQGKIVDLVKELDRDTVFALVNYIFFKGKWERPFEVKDTEEEDFHVDQVTTVKVPMMKRLGMFNIQHSKKLSSWVLLMKYLGNATAIFFLPDEGKLQHLENELTHDIITKFLENEDRRSASLHLPKLSITGTYDLKSVLGQLGITKVFSNGADLSGVTEEAPLKLSKAVHKAVLTIDEKGTEAAGAMFLEAIWRIIPPEVKFNKPFVFLMIEQNTKSPLFMGKVVNPTQK | –
7 | ~10 | – | – | – | α1AT Pitts (P1R) mutant P2WP1′H (other) SDPQGDAAQKTDTSHHDQDHPTFNKITPNLAEFAFSLYRQLAHQSNSTNIFFSPVSIATAFAMLSLGTKADTHDEILEGLNFNLTEIPEAQIHEGFQELLRTLNQPDSQLQLTTGNGLFLSEGLKLVDKFLEDVKKLYHSEAFTVNFGDTEEAKKQINDYVEKGTQGKIVDLVKELDRDTVFALVNYIFFKGKWERPFEVKDTEEEDFHVDQVTTVKVPMMKRLGMFNIQHSKKLSSWVLLMKYLGNATAIFFLPDEGKLQHLENELTHDIITKFLENEDRRSASLHLPKLSITGTYDLKSVLGQLGITKVFSNGADLSGVTEEAPLKLSKAVHKAVLTIDEKGTEAAGAMFLEAIWRHIPPEVKFNKPFVFLMIEQNTKSPLFMGKVVNPTQK | –
8 | ~10 | – | – | – | α1AT Pitts (P1R) mutant P2RP1′A (other, also called 3.E5) SDPQGDAAQKTDTSHHDQDHPTFNKITPNLAEFAFSLYRQLAHQSNSTNIFFSPVSIATAFAMLSLGTKADTHDEILEGLNFNLTEIPEAQIHEGFQELLRTLNQPDSQLQLTTGNGLFLSEGLKLVDKFLEDVKKLYHSEAFTVNFGDTEEAKKQINDYVEKGTQGKIVDLVKELDRDTVFALVNYIFFKGKWERPFEVKDTEEEDFHVDQVTTVKVPMMKRLGMFNIQHSKKLSSWVLLMKYLGNATAIFFLPDEGKLQHLENELTHDIITKFLENEDRRSASLHLPKLSITGTYDLKSVLGQLGITKVFSNGADLSGVTEEAPLKLSKAVHKAVLTIDEKGTEAAGAMFLEAIRRAIPPEVKFNKPFVFLMIEQNTKSPLFMGKVVNPTQK | –
